The nanobody polyreactivity screen of Harvey et al. (2022)

Assay: yeast display, Sf9 membrane polyspecificity reagent, FACS + sequencing; frameworks hold sequencing errors
How it was run: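 Polyreactivity labels are assigned by the sorting gate from which each nanobody was recovered. The gates were low and high (top ~1%), set on anti-HA fluorescence for expression and streptavidin fluorescence for reagent binding. Before sorting, galactose-induced (36–48 hours) yeast display cells were stained for 1 hour at 4 °C with 10% biotinylated, detergent-solubilized Sf9 membrane reagent.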

Row | Sequence | polyreactivity (PSR sort gate)
1 | QVQLVESGGGLVQAGGSLRLSCAASGFTFKRYAMGWYRQAPGKEREFVAAITRGGGSTYYTDSVKGRFTISRDNAKNTVYLQMNSLKPEYTAVYYCAAVLYYYWRGYGPRSNRYDYWGQGTQVTVSS | high polyreactivity
2 | QVQLVESGGGLVQAGGSLRLSCAASGITFCYYVMGWYRQAPGKERELVAAISSGSSTYYADSVKGRFTISRDNAKNTVYLQMNSLKPEDTAVYYCAAESVYWLEFRYYYWGQGTQVTVSS | low polyreactivity
3 | QVQLVESGGGIVQAGGSLRLSCAASGFTFTYNTKGWYRQEPGKERELVAAISRSGGSTYYADSVKGRFTISRDNAKNTVYLQLNSLKPEDSAVYYCAKQRRDDNGGYWGLGTQVTVSS | high polyreactivity
4 | QVQLVESGGGLVQAGGSLSLICAASGRNFYTYAMGWYRQAPGKERELVAAISWSGGSTYYADSVKGRFTISRDNAKNTVYLQMNSLNPEDTAVYYCNARFRFGWPGYDYWGQGTQVTVSS | high polyreactivity
5 | QVQLVESGGGLVQAGGSLRLSCAASGSTFNYNAMGWYRQAPGKERELVAAISSGASTNYADSVKGRFTISRDNAKNTVYLQMNSLKPEDTAVYYCAARSRTPGWYSTISRKMYWGQGTQVTVSS | high polyreactivity
6 | QVQLEESGGGLVQAGGSLRLSCAASRSTLDGYAMGWYRQAPGKERELVDAITFSGGITYYADSVKVRFTISRDNAKNTVYLQMNILKPEDTAVYYCAADISTWTTWSGTEYDYLGQGTQVTVSS | low polyreactivity
7 | QVQLVESGGGLVQAGGSLRLSCAASGRTFSTYAMGWYRQSPGKERELVAAITWRGASTYYADSVKGRFTISRDYAKNTVYLQMNSLKPEDTAVYYCATDAPDRTDSDSGFDAGYDYWGQGTQVTLSS | low polyreactivity
8 | QVQLVESGGGLVQAGGSLRLSCAASGSIFHFYAMGWYRQAPGKERELVAAITSGTSTYYADSVKGRFTISRDNAKNTVYLQMNSLKPEDTAVYYCAAEASHYYYNAYPSYGGSDYWGQGTQVTVSS | low polyreactivity
9 | QVQLVESGGGLVQAGGSLRLSCAASGYIFSVNAMGWYRQAPGKERELVAAIRGSGGSTFYADSVKGRFTISRDNAKNTVYLQMNSLKPEDTAVYYCAAYWRGRYDYWGQGTQVTVSS | low polyreactivity
10 | QVQLVESGGGLVQAGGTLRLSCAASGGIFGGYAMGWYRQAPGTEGELVAVITSGGSTYYADSVKGRFTISRDNAKNTVYLQMNSLKPEDTAVYYCAADGHSYSYSTYDYWGQGTQVTVSS | low polyreactivity
11 | QVQLVESGGGIVQAGGSLRLSFAASGSTFAGYAMGLYREAPGKERELVATFTYSGGSTYYADSVKGRFSISRDNAKNTVYLQMNSLKPEDTAVYYCAKNASYLWGYEYWGQGTQVTVSS | low polyreactivity
12 | QVQLVESGGGLVQAGGSLRLSCAASGRIFKHYAMGWYRQAPGKERELVAAITNGGRTNYADSVKGRFTISRDNAKNTVYLQMNSLKPEDTAVYYCARDRKIAYLSEGFDYWGQGTQVTVSS | low polyreactivity
13 | QVQLVDSGGGLVQAGGSLRLSCAASGFTIYANAMGWYRQAPGKERELVAAITSSSGRTYYADSVKGRFTISRDNAKNTVYLQMNSLIPEETAVYYCAARWSPYDYWGQGTQVTVSS | low polyreactivity
14 | QVQLVETGGGLVQAGGSLRLSCAASGSTFESYAMGWYRQAPGKERELVASISRCGGTTFYADSVKVRFTISRDNAKNTVYLQMNSLKPEDTEVYYCAAKRRRLGGDYWGQGTQVTVSS | high polyreactivity
15 | QVQLVESGGGLVQAGGSLRLSCAASGSIFDLYAKGWYRQAPGKERELVAGISYSGGSTYYADSVKGRFTISRDNAKNTVYLQMNSLKPEDTAVYYCATAYYYHGGYYYPYDDYWGQGTQVTVSS | low polyreactivity
16 | QVQLVESGVGLVQAGGSLRLSCAASGRIFGVYVMGWYRQAPGKERELVAGISPSGGSTYYADSVKGRFTISRDNAKNTVYLQMNSLKPEDTAVYYCAAVLRIRRPRYGYWGQGTQVTVSS | high polyreactivity
17 | QVQLVESGGGLVQAGGSLRLSCAASGRIFTRYAMGWYRQAPGKERELVAAISRGGARTYYADSVKGRFTISRDNAKNTVYLQMNSLKPEDTAVYYCARQRVKTDRISGYDYWGQGTQVTVSS | high polyreactivity
18 | QVQLVESGGGLVQAGGSLRLSCAASGSIFRIYAMGWYRPAPGKERELVAAISRGGGSTYYADSVKGRFTISRDNAKNTVYLQMNSLKPEDTAVYYCAARSPYRYYYWGQGTQVTVSS | high polyreactivity
19 | QVQLVESGGGLVQAGGSLRLSCAASGRTFPSYAMGWYRQSPGKERELVAAITVSGGNTYYADSVKGRFTISRDNAKNTVYLQMNSLKPEDTAVYYCNTASYVSWYVHYYYWGQGTQVTVSS | low polyreactivity
20 | QVQLVESGGGLVQAGGSLRLSCPASGRIFQLYAMGWYRQAPGKERELVAAIRYSGDSTYYADSVKGRLTISRDNAKNTVYLQLNSLKPEDTAVYYCAARSRYGYRNKYEYWGQGTQVTVSS | high polyreactivity
21 | QVKLVESGGGLVQAGGSLRLSCAASGFTFEEYAMGCYRQSPGKERELVAAISASGGRTYYADSVKRRFTISRDNAKNTVYLQMNSLKPEDTAVYYCAAGYRGRRIMDYWGQGTQVTVSS | high polyreactivity

Row | Sequence | polyreactivity (PSR sort gate)
22 | QVQLVESGGGLVQAGGSLRLSCAASGSIFRGYTLGWYRQAPGKERELVAAISTRGGSTYYADSVKGRFTISRDNANNTVYLQMNSLKPEDTAVYYCNARSRGRASGYDYWGQVTQVTVSS | high polyreactivity
23 | QVQLVESGGGLVQAGGSLRLSCAPSGYIFEIYAMGWYSQEPGKERELVAAISTRGGRTYYADSVKGRFTISRDKAKNTVYLQMNSLKPEDTAVYYCAAGFPYKFTYVGGYNHWGQGTQVTVSS | low polyreactivity
24 | QVQLVESGGRLVQAGGSLRLSCAASGRIFYPYAMGWYRQAPGKERELVASISSSGDRTYYADSVKGRFTISRDNAKNTVYLQMNSLKPEDTAVYYCAARWRYTYYYWGQGTQVTVSS | high polyreactivity
25 | QVQLVESGGGLVQAGGSLRLSCAASGFIFDWYAMGSYSQAPGKEREFVAAINWSGGSTYYADSVKGRFTISRDNAKNTVYLQMNSLKPEDTAVYYCAAYRPYSSSEGVYWGQGTQVTVSS | high polyreactivity
26 | QVQLVESGGGLVQAGGSLRLSCAASGRTFYWYAMGWYRQAPGKERELVAAISSGGSTYYADSVKGRFTISRDNAKNTVYLQMNSLKPEDTAVYYCAAVTPSGAHRSAYHPISDYWGQGTQVTVSS | low polyreactivity
27 | QVQLVESGGGLVQAGGSLRLSCAASGRIFKGYAMGWYRLAPGKERELVAAITSGGNTNYADSVKGRFTISRDNAKNTVYLQMNSLKPEDTAVYYCAARPRFVYSYPYYYWGQGTQVTVSS | high polyreactivity
28 | QVQLVESGGGLVQAGGSLRLSCAASGSIFLSYDMGWYRQAPGKERELVAAITQSGGSTYYADSVKGRFTISRDNAKNTVYLQMNSLKPEDTAVYYCAKEGDSGYWFDYWGQGTQVTVSS | low polyreactivity
29 | QVQLVESGGGLVQAGGSLRLSCAASGSIFYQYAMGWYRQAPGKERELVAAISVRAGITYYADSVKGRFTISRDNAKNTVYLQMNSLKPEETAVYYGAKDHWTTSYDEGDYWGQGTQVTVSS | low polyreactivity
30 | QVQLVESGGGLVQAGGSLRLSCAASGRTFHYNAMGWYRQAPGKERELVAAITRSGGSTYYADSLKGRFTISRVNAKNTVYLQMNSLKPEDTAVYYCAAGWRSVSVRYYGPSDYWGQGTQVTVSS | low polyreactivity
31 | QVQLVESGGGLVQAGGSLRLSCAASGRISGYAMGWYRQAPGKERELVAAISTRGGTTYYADSVKGRFTISRDNAKNTVYLQMNSLSPEDTAVYYCNAASSRWPEYDYWGQGTQVTVSS | high polyreactivity
32 | QVQLVESGGGLVQAGGSLRLSCAASGRIFSYNAMGWYRQAPGKERELVASISYSGTSTYYADSVKGRFTISRDNAKKTVYLQMNSLKPEDTAVYYCAALSRRRFGYWGQGTQVTVSS | high polyreactivity
33 | QVQLVESGGGLVQAGGSLRLSCAASGSTFTYNTMGWYRQAPGKERELVAAINTTGNTYADSVKGRFTISRDNAKNTVYLQMNSLKPEDTAVYYCNTDYVPRRHDMDYWGQGTQVTVSS | low polyreactivity
34 | QVQLVESGGGLVQAGGSLRLSCAASGYIFVFNTMGWYRQAPGKERELVASISWDAGSTYYADSVKGRFTISRDNAKNTVYLQMNSLKPEDTAVDYCNAGRIRSGSPDYWGQGTQVTVSS | low polyreactivity
35 | QVQLVESGGGLVQAGGSLRLSCAASGFIFDPNAMGWYRQAPGRERELVAAISSSGGRTYYADSVKGRFTISRDNAKNTVYLQMNSLKPEDTAVYYCATDTSVQGQEYDYWGQGTQVTVSS | low polyreactivity
36 | QVQLVESGGGLVQAGCSLRLSCAASGYIFYIYAMGWYRQAPGKERELVAAITWSGDTTYYADSVKGRFTISRDNAKNTVYLQMNSLKPEDTAVYNCATYYYYPSWYLLYGEYNYWGQGTQVTVSS | low polyreactivity
37 | QVQLVESGGGLVQAGGSLRLSCAASGRIFDYYTMGGYRQAPGKETELVAAINWSGGSTYYADSVKGRFTISRDNAKNTVYLQMNSLKPEDTAVYYCATLSYGREYGYWGQGTQVTVSS | low polyreactivity
38 | QVQLVESGGGLVQAGGSLRLSCAASGSTFYPYTMGWYRQAPGKERELVAAITSGGNTNYADSVKGRFTISRDNAKNTVYLQMNSLKPEDTAVYYCNAEPEGTTGNYFPYDYWGQGTQVTVSS | low polyreactivity
39 | QVQLVESGGGLVQAGGSLRLSCAASGITFDSNAMGWYRQAPGNERELVAAISSTGSTDYADSVKGRFTITRDNAKNTVYLQMNSLKPEDTAVYYCATGGRGGRRYEYWGQGTQVTVSS | low polyreactivity
40 | QVHLVESGGGLVQAGGSLRLSCAASGIIFGVYAMGWYRQATGKESELVAAIDGNGSSTYYADSVKGRFTISRDNAKNTVFLQMNSLKPEDTAVYYCAAGYWSYLYYWYDFDYWGQGTQVTVSS | low polyreactivity
41 | QVQLVESGGGLVQAGGSLRLSCAASGRIFLSYAMGWYRQAPGKERELVAAISQSGSSKYYADSVKGRFTISRDNAKNTVYLQMNSLKPEDTAVYYCAARTGRKYYYWGQGTQVTVST | high polyreactivity
